The test system of experiment [1] is IGF-1 pathway in MDA-MB-231 cells. Description: IGF-1 pathway activation (Western blotting) after klotho protein over-expression. Type of experiment: cell-based, human. The conditions noted are these: IGF-1 12.5 nM, 15 min, data not shown. The method, then: (§1) For breast cells, cells were harvested and lysed for total protein extraction in RIPA buffer (50 mM Tris-Cl pH 7.4, 150 mM NaCl, 1% NP-40, 0.25% Na-deoxycholate, 1 mM EDTA, 1 mM NaF) together with a protease inhibitor cocktail (Sigma). 50 μg protein extracts were loaded on 10% polyacrylamide gels, separated electrophoretically and blotted from the gel onto nitrocellulose membrane (Schleicher & Schuell Bioscience GmbH, Dassel, D E). The membranes were then immunoblotted with the indicated antibodies.
(§2) MDA-MB-231 cells, which express lower levels of these receptors, were also examined. HEK 293 cells, whose growth is not dependent on the IGF-1 pathway (El-Shewy et al., 2007) and is not inhibited by klotho protein, served as control.
(§3) In further experiments, MCF-7, MDA-MB-231 or HEK-293 cells were transfected with either pcDNA3-HA-KL or empty vector and treated with IGF-1 (12.5 nM, 15 min).
(A western blot detects proteins with antibodies after separation by electrophoresis.)

The test system of experiment [2] is IGF-1 pathway in HEK 293 cells. The description is as above. Format: cell-based, human. The conditions noted are these: IGF-1 12.5 nM, 15 min. As for the experimental part:
as §1, §2, §3

For experiment [3], the system named is MCF-7 cells. The experiment can be described thus: IGF-1-induced MCF-7 proliferation after klotho protein transfection. The note with it: HA-KL-transfected cells, 0.5% serum, IGF-1 24-96 hr; control pcDNA3 cells up to 40%. Type of experiment: cell-based, human. The method, then: The medium was aspirated, and the cells were dissolved by dimethyl sulfoxide (DMSO).
Klotho protein is known to inhibit activation of the IGF-1 pathway in L6 myoblasts cells and rat hepatoma H4IIE cells (Kurosu et al., 2005). This pathway plays an important role in breast cancer tumorigenesis, and IGF-1 induces MCF-7 cell proliferation (Geier et al., 1995; Yee, 2006). In order to test the ability of klotho protein to modulate IGF-1-induced proliferation and survival, MCF-7 cells were transiently transfected with either pcDNA3 or pcDNA3-HA-KL, and grown in 0.5% serum with either IGF-1 or a control vehicle for 24-96 hr.

In experiment [4] the test system is Colo357, MiaPaCa2, and Panc1. The experiment can be described thus: Colony formation assay of pancreatic carcinoma cell lines transfected with klotho protein vector. Format: cell-based, human. The conditions noted are these: pcDNA3-HA-KL vs empty vector; G418 two weeks. As for the experimental part:
Two days following transfection with the indicated plasmids, G418 (900 μg/ml for Panc1, 1000 μg/ml for MiaPaCa2 and 750 μg/ml for Colo357, HEK-293 and BON1) was added to the culture media. At day 14, cells were stained using crystal violet (Sigma-Aldrich) and quantitated as described (Wolf et al., 2008).
For the colony formation assay, pancreatic carcinoma cell lines Colo357, MiaPaCa2, and Panc1 were transfected with either a HA-tagged klotho protein expression vector (pcDNA3-HA-KL) or an empty vector (pcDNA3). Transfected cells were cultured in media containing G418 for two weeks. Colonies were stained with crystal violet and photographed.

Experiment [5] relates to C/EBPβ in MCF-7 cells. Description: C/EBPβ levels after klotho protein over-expression. The conditions noted are these: over-expression vs empty vector. Format: cell-based, human. As for the experimental part:
as §3
C/EBPβ is a down-stream target of the GSK3β pathway, which is suppressed following stimulation by IGF-1 (Li et al., 2007). […] The effects of over-expression of klotho protein on C/EBPβ levels were therefore analyzed.

For experiment [6], the system named is human embryonic kidney (HEK) 293 cells. Description: Colony formation assay after transfection with klotho protein expression vector. Type of experiment: cell-based. The note with it: transfected pcDNA3-HA-KL vs empty vector. The method, then:
Two days following transfection with the indicated plasmids, G418 (750 μg/ml) was added to the culture media; and at day 14, the cells were stained using gentian violet. Untransfected cells were treated similarly, and all died within the 2 weeks of culture in the selection media. Quantification of the results was performed using AlphaImager 2000 (Alpha Innotech, CA).
The effect of klotho protein on growth of breast cancer cells was first assessed using colony formation assays. MCF-7, MDA-MB-231 and the non-cancerous human embryonic kidney (HEK) 293 cells were transfected with either a HA-tagged klotho protein expression vector (pcDNA3-HI-A-KL) or an empty vector (pcDNA3). Transfected cells were cultured in media containing G418 for two weeks and stained to determine the number of surviving colonies.

Experiment [7] has as its system insulin pathway in HEK 293 cells. The experiment can be described thus: Insulin pathway activation after klotho protein over-expression. Type of experiment: cell-based, human. The note with it: insulin stimulation.
The subject of experiment [8] is Panc1 cells. The experiment can be described thus: In vivo Panc1 tumors in athymic nude mice treated with soluble klotho protein. The conditions noted are these: 200 ng/day, 500 ng/day daily intra-peritoneal, up to 4 weeks. As for the experimental part: Panc1 cells were harvested, washed twice with sterile PBS, counted and resuspended in Matrigel (BD Biosciences). Six-week-old female athymic nude mice were injected subcutaneously in both flanks with cells at a density of 0.5×10^6 cells/100 μl. The mice were treated with daily intra-peritoneal injections of either soluble klotho protein (prepared as described above): 200 ng/day, 500 ng/day, or vehicle control (saline). Five mice were used in each group. Tumor size was measured weekly with a linear caliper for up to 4 weeks, and tumor volume was estimated using the equation V=(a×b^2)×0.5236, where “a” is the larger dimension and “b” the perpendicular diameter.

B1: klotho protein: full length mouse Klotho (SEQ ID NO. 3) over-expressed in cells from HA-tagged expression vector pcDNA3-HA-KL (protein)
chain: MLARAPPRRPPRLVLLRLLLLHLLLLALRARCLSAEPGQGAQTWARFARAPAPEAAGLLHDTFPDGFLWAVGSAAYQTEGGWRQHGKGASIWDTFTHHSGAAPSDSPIVVAPSGAPSPPLSSTGDVASDSYNNVYRDTEGLRELGVTHYRFSISWARVLPNGTAGTPNREGLRYYRRLLERLRELGVQPVVTLYHWDLPQRLQDTYGGWANRALADHFRDYAELCFRHFGGQVKYWITIDNPYVVAWHGYATGRLAPGVRGSSRLGYLVAHNLLLAHAKVWHLYNTSFRPTQGGRVSIALSSHWINPRRMTDYNIRECQKSLDFVLGWFAKPIFIDGDYPESMKNNLSSLLPDFTESEKRLIRGTADFFALSFGPTLSFQLLDPNMKFRQLESPNLRQLLSWIDLEYNHPPIFIVENGWFVSGTTKRDDAKYMYYLKKFIMETLKAIRLDGVDVIGYTAWSLMDGFEWHRGYSIRRGLFYVDFLSQDKELLPKSSALFYQKLIEDNGFPPLPENQPLEGTFPCDFAWGVVDNYVQVDTTLSQFTDPNVYLWDVHHSKRLIKVDGVVAKKRKPYCVDFSAIRPQITLLREMRVTHFRFSLDWALILPLGNQTQVNHTVLHFYRCMISELVHANITPVVALWQPAAPHQGLPHALAKHGAWENPHTALAFADYANLCFKELGHWVNLWITMNEPNTRNMTYRAGHHLLRAHALAWHLYDDKFRAAQKGKISIALQADWIEPACPFSQNDKEVAERVLEFDIGWLAEPIFGSGDYPRVMRDWLNQKNNFLLPYFTEDEKKLVRGSFDFLAVSHYTTILVDWEKEDPMKYNDYLEVQEMTDITWLNSPSQVAVVPWGLRKVLNWLRFKYGDLPMYVTANGIDDDPHAEQDSLRIYYIKNYVNEALKAYVLDDINLCGYFAYSLSDRSAPKSGFYRYAANQFEPKPSMKHYRRIIDSNGFLGSGTLGRFCPEEYTVCTECGFFQTRKSLLVFISFLVFTFIISLALIFHYSKKGQRSYK
modifications: HA tag
For the molecule B1, the “effect on IGF-1 pathway phosphorylation” value is reported as “Smaller effects” in experiment [1] and “only minor effects” in experiment [2]. Also, in experiment [3], the “increase of cell proliferation by IGF-1” value came out at 25%. Moreover, the “number and size of surviving colonies” value in experiment [4] is given as “significantly reduced”. For the same molecule, the C/EBPβ levels result in experiment [5] was “significant up-regulation”. The “effect on HEK 293 growth (colony assay)” value in experiment [6] is “no effect”. Besides, the “activation of the insulin pathway” value in experiment [7] is “not”. Besides, in experiment [8], the “tumor growth (tumor size)” value was “significant dose-response arrest of tumor growth”.

(Values after patent US10555963B2, “Klotho protein and related compounds for the treatment and diagnosis of cancer” (TEL HASHOMER MEDICAL RESEARCH INFRASTRUCTURE AND SERVICES …, priority 2007, dated 2020).)
